Where a chain is given by its changes, count along the chain named.

Test [1] concerns the target T1, human CD16a (158V), full length, on cells (human, UniProt P08637 17-254).
T1 construct: also used as target for the bought Jurkat-NFAT reporter line stably expressing human CD16a (158V); also called FlpinCHO-human CD16a (158V); FlpinCHO-CD16a (158V)
Description: FACS, biotinylated antibody, +10 mg/mL human immunoglobulin.

Test [2] addresses human CD16a (158F), full length, on FlpinCHO cells (human, UniProt P08637 17-254). Described as above.
For test [3], the target named is T2, CD16 on primary human NK cells (human, UniProt P08637 17-254).
T2 construct: whole, on cells; also called resting NK cells
Put plainly: FACS on human NK cells, biotinylated antibody, +10 mg/mL human immunoglobulin.

The target in test [4] is T2, CD16 on primary human NK cells. Description: FACS on human NK cells, biotinylated antibody.
In test [5] the target is T1, human CD16a (158V), full length, on …. Description: cell-based or functional assay.
Test [6] has as its target T2, CD16 on primary human NK cells. Put plainly: FACS on human NK cells. In outline:
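Freshly prepared human NK cells were resuspended at 2×10⁶ cells/ml in PBS+2% (w/w) BSA and incubated 1 h on ice with antibody at varying concentrations. After five PBS washes, flow cytometry gave mean fluorescence intensity, and EC50 was fitted from the MFI curve.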

Test [7] concerns the target T3, human CD16b (NA1), full length, on FlpinCHO cells (human, UniProt O75015 17-200).
T3 construct: also called FlpinCHO-human CD16b (NA1)
T3 chain: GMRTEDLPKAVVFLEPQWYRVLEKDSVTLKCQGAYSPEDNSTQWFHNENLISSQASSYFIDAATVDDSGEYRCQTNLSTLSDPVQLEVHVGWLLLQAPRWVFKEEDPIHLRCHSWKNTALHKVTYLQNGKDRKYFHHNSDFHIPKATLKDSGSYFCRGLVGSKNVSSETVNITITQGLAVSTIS
Description: FACS on FlpinCHO cells. The method in brief: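 Trypsin-detached FlpinCHO cells expressing full-length CD16b were blocked in PBS+2% BSA and incubated on ice for 1 hour with antibody at varying concentrations. Binding read by flow cytometry as MFI; EC50 from curve fitting.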

For a further test, the target named is T4, Human CD16b (NA2)-his (human).
T4 construct: entry holds ECD, linker, His tag and AVI tag
T4 chain: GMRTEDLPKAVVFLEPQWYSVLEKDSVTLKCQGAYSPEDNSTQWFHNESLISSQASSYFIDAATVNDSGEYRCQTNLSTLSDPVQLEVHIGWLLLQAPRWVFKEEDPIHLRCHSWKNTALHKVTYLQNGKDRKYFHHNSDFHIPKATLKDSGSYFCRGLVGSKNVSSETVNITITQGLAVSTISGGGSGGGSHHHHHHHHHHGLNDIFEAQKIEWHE
Put plainly: SPR (Biacore), antibody captured on Protein A. The method in brief: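 Protein A–captured antibody was probed with CD16-his ECD in HBS-EP+ at 25 °C: five 2-fold dilutions from 200 nM, 240 s at 30 μL/min, dissociation up to 600 s. Glycine pH 1.5 regenerated the chip. Apparent KD came from a double-referenced 1:1 Langmuir fit.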
Background: SPR reads the build-up and loss of mass on a sensor chip optically.

human CD16a (158F), full length, on FlpinCHO cells, sequence (P08637 17-254 limits assumed): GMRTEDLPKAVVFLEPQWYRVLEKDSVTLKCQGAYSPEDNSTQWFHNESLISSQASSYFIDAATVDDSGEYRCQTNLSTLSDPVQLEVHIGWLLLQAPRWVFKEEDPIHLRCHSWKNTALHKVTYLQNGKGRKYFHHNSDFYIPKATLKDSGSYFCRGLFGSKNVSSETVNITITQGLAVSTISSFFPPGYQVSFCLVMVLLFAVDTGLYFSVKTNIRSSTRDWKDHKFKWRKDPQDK
T1 sequence (P08637 17-254 F176V limits assumed): as the sequence (P08637 17-254 limits assumed) above, with F160V counted along it

B1: VHH06 VHH-Fc antibody (Fc fusion)
chain: EVQLVESGGGLVQAGGSLRLSCVASGSTWTTYAVRWYRQAPGKQREWVAFISVDGSTNYPDSVKGRFIVSRDNAKNTVYLQMNSLKPEDTADYICRVGGQYWGQGTQVTVSSEPKSSDKTHTCPPCPAPEFEGGPSVFLFPPKPKDTLMISRTPEVTCVVVAVSHEDPEVKFNWYVDGVEVHNAKTKPREEQYNSTYRVVSVLTVLHQDWLNGKEYKCKVSNKALPAPIEKTISKAKGQPREPQVYTLPPSREEMTKNQVSLTCLVKGFYPSDIAVEWESNGQPENNYKTTPPVLDSDGSFFLYSKLTVDKSRWQQGNVFSCSVMHEALHNHYTQKSLSLSPGK
Turning to B1, the EC50 in test [1] is 1.77 nM; in test [2], 1.66 nM; in test [3], 3.9 nM; in test [4], 1.42 nM; in test [6] it was 0.54 nM; in test [7], 1.41 nM. For the same molecule, the “Maximum mean fluorescence intensity” value in test [1] amounted to 14500; in test [2], 10700; in test [3] it was 80000; in test [4], 69600; in test [6], 2600; in test [7], 33300. In addition, the “EC50, activation activity for Jurkat cell” value (“EC50, activation activity” below) in test [5] came out at 0.04 nM. Moreover, the Maximum fluorescence value in test [5] was 169000.

B2: VHH11 VHH-Fc antibody (Fc fusion)
chain: EVQVVESGGGLAQAGGSLRLSCAVSGITFSSYAMGWYRQDPGKQRELVAAINRFGLTNYADSVKGRFTISRDNAKNTVYLQMTSLKPEDTAVYYCNTGGVYSHPNYYTGTYWGQGTQVTVSSEPKSSDKTHTCPPCPAPEFEGGPSVFLFPPKPKDTLMISRTPEVTCVVVAVSHEDPEVKFNWYVDGVEVHNAKTKPREEQYNSTYRVVSVLTVLHQDWLNGKEYKCKVSNKALPAPIEKTISKAKGQPREPQVYTLPPSREEMTKNQVSLTCLVKGFYPSDIAVEWESNGQPENNYKTTPPVLDSDGSFFLYSKLTVDKSRWQQGNVFSCSVMHEALHNHYTQKSLSLSPGK
Regarding B2, the concentration for a half-maximal effect (EC50) in test [1] is 1.12 nM; in test [2], 0.75 nM; in test [3], 2.31 nM; in test [4] it was 0.95 nM; in test [6], 0.33 nM; in test [7], 1.03 nM. Further, the “Maximum mean fluorescence intensity” value in test [1] was determined as 10800; in test [2] it was 6720; in test [3] it was 62300; in test [4], 60700; in test [6], 2660; in test [7] it was 37900. Moreover, the “EC50, activation activity” value in test [5] came out at 0.03 nM. In addition, in test [5], the Maximum fluorescence value was found to be 166000. Binding with Human CD16b (NA2)-his was put at a Kd of 4920 nM. Moreover, the koff with Human CD16b (NA2)-his is 0.2 s⁻¹. This molecule yielded an association rate constant (kon) in the test with Human CD16b (NA2)-his of 40700 M⁻¹ s⁻¹.

B3: VHH12 VHH-Fc antibody (Fc fusion)
chain: B2 chain with E1Q, V4L, A12V, V24A, D40A, S62F, D72V, N105D
As for B3, the EC50 came out at 0.97 nM in test [1]; 0.81 nM in test [2]; 1.82 nM in test [3]; 0.4 nM in test [4]; 0.21 nM in test [6]; 0.62 nM in test [7]. Moreover, the “Maximum mean fluorescence intensity” value was 8140 in test [1]; 5310 in test [2]; 48900 in test [3]; 46500 in test [4]; 2680 in test [6]; 58100 in test [7]. Besides, the “EC50, activation activity” value in test [5] was determined as 0.02 nM. The molecule also yielded a Maximum fluorescence value in test [5] of 165000. This molecule also showed a Kd with Human CD16b (NA2)-his of 1050 nM. In addition, the koff with Human CD16b (NA2)-his was 0.0998 s⁻¹. In the test with Human CD16b (NA2)-his, this molecule displayed a kon of 95100 M⁻¹ s⁻¹.

As usually defined, the EC50 is the concentration giving half of the maximal effect. High values mean weaker potency, low ones greater potency. A word on the Kd: it is the equilibrium constant for the complex coming apart. High values mean lower affinity, low ones higher affinity. As a reminder, the koff is the rate constant with which the complex falls apart. Higher therefore signals fast dissociation. A word on the kon: it is a measure of how fast the partners come together. A lower kon goes with slow association.

These data come from patent publication US20240343811A1 (SHANDONG SIMCERE BIOPHARMACUTICAL, published 2024).
